Experimental data as given in publication PMC13218723, “A novel RAB5 binding site in human VPS34-CII that is likely the primordial site in eukaryotic evolution” (eLife, 2026).
“And” between values parts separate entries of the source, which are not always exact repeats. Equal entries are not always repeated.

Legend:
[1] = biological target: mCherry-tagged human VPS34-CII with VPS34 199-REIE-202>199-AAAA-202 (human, UniProt Q8NEB9 1-887; Q99570 1-1358; Q14457 1-450; Q9P2Y5 1-699, 199-REIE-202>199-AAAA-202)
[2] = biological target: T1, mCherry-tagged human VPS34 complex II (VPS34-CII), wild type (human, UniProt Q8NEB9 1-887; Q99570 1-1358; Q14457 1-450; Q9P2Y5 1-699); experiment: confocal microscopy bead-based binding assay; RFP-trap agarose beads coated with 2 µM mCherry-tagged VPS34 complex (or mCherry alone); AF488-labelled RAB protein added at varying concentrations; 20 mM HEPES pH 8.0, 100 mM NaCl, 0.5 mM TCEP; 30 min on ice; AF488 normalised by mCherry intensity; fit 'One site - specific binding'; conditions: both partners purified
T1 construct: human VPS34 (class III PI3K), full length, untagged; human VPS15, full length, with C-terminal 3xTEV-ZZ removed by TEV; human BECLIN1, full length; human UVRAG, full length, untagged; Held on RFP-trap beads by the mCherry on BECLIN1; also called mCherry-VPS34-CII; WT VPS34-CII; source: Expi293 cells, transfected; purified (IgG beads, TEV cleavage, S200 gel filtration); not shown: ZZ (protein A), …

[3] = biological target: T2, mCherry-tagged human VPS34-CII with VPS34 199-REIE-202>199-AAAA-202 (human, UniProt Q8NEB9 1-887; Q99570 1-1358; Q14457 1-450; Q9P2Y5 1-699, 199-REIE-202>199-AAAA-202); experiment: as above; conditions: both partners purified
T2 construct: human VPS34, full length, untagged, REIE to AAAA in C2 HH helix 2; human VPS15, full length, with C-terminal 3xTEV-ZZ removed by TEV; human BECLIN1, full length; human UVRAG, full length, untagged; also called VPS34-CII REIE >AAAA; source: Expi293 cells, transfected; purified (IgG beads, TEV cleavage, S200 gel filtration); not shown: ZZ (protein A), C-terminal, cleaved; mCherry, N-terminal, kept; …

[4] = biological target: T3, mCherry-tagged human VPS34-CII with VPS34 199-REIE-202>199-ERIR-202 (human, UniProt Q8NEB9 1-887; Q99570 1-1358; Q14457 1-450; Q9P2Y5 1-699, R199E | E200R | E202R); experiment: as above; conditions: both partners purified
T3 construct: human VPS34, full length, untagged, R199E E200R E202R; human VPS15, full length, with C-terminal 3xTEV-ZZ removed by TEV; human BECLIN1, full length; human UVRAG, full length, untagged; also called VPS34-CII REIE >ERIR; reverse charge mutant; source: Expi293 cells, transfected; purified (IgG beads, TEV cleavage, S200 gel filtration); not shown: ZZ (protein A), C-terminal, cleaved; mCherry, …

[5] = biological target: T4, mCherry-tagged human VPS34-CII with VPS15 579-SHMIT-583>579-DDMIE-583 (human, UniProt Q8NEB9 1-887; Q99570 1-1358; Q14457 1-450; Q9P2Y5 1-699, S579D | H580D | T583E); experiment: as above; conditions: both partners purified
T4 construct: human VPS34, wild type; human VPS15, full length, S579D H580D T583E, with C-terminal 3xTEV-ZZ removed by TEV; human BECLIN1, full length; human UVRAG, full length, untagged; also called VPS34-CII VPS15 mutant; VPS15 mut; source: Expi293 cells, transfected; purified (IgG beads, TEV cleavage, S200 gel filtration); not shown: ZZ (protein A), C-terminal, cleaved; mCherry, N-terminal, kept; copies: + …

[6] = biological target: human VPS34-CII with VPS34 199-REIE-202>199-ERIR-202, untagged (human, UniProt Q8NEB9 1-887; Q99570 1-1358; Q14457 1-450; Q9P2Y5 1-699, R199E | E200R | E202R); experiment: cell-based or functional assay
[7] = biological target: T4, mCherry-tagged human VPS34-CII with …; experiment: cell-based or functional assay
[8] = biological target: T5, mCherry-tagged human VPS34 complex II, wild type (VPS34, VPS15, mCherry-BECLIN1, UVRAG) (human, UniProt Q8NEB9 1-887; Q99570 1-1358; Q14457 1-450; Q9P2Y5 1-699); experiment: confocal microscopy bead-based binding assay; mCherry-tagged VPS34 complex (2 µM) held on RFP-trap agarose beads, AF488-labelled RAB5A added at varying concentrations; 20 mM HEPES pH 8.0, 100 mM NaCl, 0.5 mM TCEP; 30 min on ice; AF488 intensity normalised by mCherry intensity; GraphPad Prism fit 'One site - specific binding'; fit of the representative experiment; conditions: both partners purified
T5 construct: VPS34 (PIK3C3), human, full length, untagged; VPS15, human, full length; BECLIN1, human, full length; UVRAG, human, full length, untagged; Held on RFP-trap beads by the mCherry on BECLIN1; also called VPS34-CII; WT VPS34-CII; source: Expi293 cells, transfected, purified (IgG beads, TEV cleavage, gel filtration); not shown: ZZ, C-terminal, cleaved; mCherry, N-terminal, kept; copies: + + +

[9] = biological target: T6, mCherry-tagged human VPS34 complex II with VPS34 199-REIE-202>ERIR (human, UniProt Q8NEB9 1-887; Q99570 1-1358; Q14457 1-450; Q9P2Y5 1-699, R199E | E200R | E202R); experiment: as above; conditions: both partners purified
T6 construct: VPS34 (PIK3C3), human, full length, untagged, R199E E200R E202R (199-REIE-202 to ERIR); VPS15, human, full length; BECLIN1, human, full length; UVRAG, human, full length, untagged; also called VPS34-CII REIE >ERIR; CII-ERIR; source: Expi293 cells, transfected, purified (IgG beads, TEV cleavage, gel filtration); not shown: ZZ, C-terminal, cleaved; mCherry, N-terminal, kept; copies: + + +

[10] = biological target: T7, mCherry-tagged human VPS34 complex II with VPS15 579-SHMIT-583>DDMIE (human, UniProt Q8NEB9 1-887; Q99570 1-1358; Q14457 1-450; Q9P2Y5 1-699, S579D | H580D | T583E); experiment: as above; conditions: both partners purified
T7 construct: VPS34 (PIK3C3), human, wild type; BECLIN1, human, full length; UVRAG, human, full length, untagged; also called VPS34-CII VPS15 mutant; CII-DDMIE; source: Expi293 cells, transfected, purified (IgG beads, TEV cleavage, gel filtration); not shown: ZZ, C-terminal, cleaved; mCherry, N-terminal, kept; copies: + + +

[11] = biological target: T8, mCherry-tagged human VPS34 complex II with VPS34 199-REIE-202>AAAA (human, UniProt Q8NEB9 1-887; Q99570 1-1358; Q14457 1-450; Q9P2Y5 1-699, 199-REIE-202>199-AAAA-202); experiment: as above; conditions: both partners purified
T8 construct: VPS34 (PIK3C3), human, full length, untagged, 199-REIE-202 changed to AAAA; VPS15, human, full length; BECLIN1, human, full length; UVRAG, human, full length, untagged; also called VPS34-CII REIE >AAAA; CII-AAAA; source: Expi293 cells, transfected, purified (IgG beads, TEV cleavage, gel filtration); not shown: ZZ, C-terminal, cleaved; mCherry, N-terminal, kept; copies: + + +

[12] = biological target: mCherry-tagged yeast VPS34-CII (ScVPS34-CII), wild type (S. cerevisiae, UniProt P22543 1-875; P22219 1-1454; Q02948 1-557; Q05919 1-439)
[13] = biological target: T9, mCherry-tagged yeast VPS34-CII (ScVPS34-CII), wild type (S. cerevisiae, UniProt P22543 1-875; P22219 1-1454; Q02948 1-557; Q05919 1-439); experiment: confocal microscopy bead-based binding assay; RFP-trap beads coated with mCherry-tagged yeast VPS34-CII; Vps21 Q66L-EGFP added at increasing concentrations; conditions: both partners purified
T9 construct: S. cerevisiae Vps34; S. cerevisiae Vps15; S. cerevisiae Vps30, named as a common subunit of the yeast complexes; S. cerevisiae Vps38, named as the unique subunit of yeast complex II; also called WT ScVPS34-CII; yeast complex II; source: S. cerevisiae YOY193, galactose-induced; purified (IgG beads, TEV cleavage, Superdex 200); copies: + + +

T4 sequence (Q8NEB9 whole entry, chain 1 of 4): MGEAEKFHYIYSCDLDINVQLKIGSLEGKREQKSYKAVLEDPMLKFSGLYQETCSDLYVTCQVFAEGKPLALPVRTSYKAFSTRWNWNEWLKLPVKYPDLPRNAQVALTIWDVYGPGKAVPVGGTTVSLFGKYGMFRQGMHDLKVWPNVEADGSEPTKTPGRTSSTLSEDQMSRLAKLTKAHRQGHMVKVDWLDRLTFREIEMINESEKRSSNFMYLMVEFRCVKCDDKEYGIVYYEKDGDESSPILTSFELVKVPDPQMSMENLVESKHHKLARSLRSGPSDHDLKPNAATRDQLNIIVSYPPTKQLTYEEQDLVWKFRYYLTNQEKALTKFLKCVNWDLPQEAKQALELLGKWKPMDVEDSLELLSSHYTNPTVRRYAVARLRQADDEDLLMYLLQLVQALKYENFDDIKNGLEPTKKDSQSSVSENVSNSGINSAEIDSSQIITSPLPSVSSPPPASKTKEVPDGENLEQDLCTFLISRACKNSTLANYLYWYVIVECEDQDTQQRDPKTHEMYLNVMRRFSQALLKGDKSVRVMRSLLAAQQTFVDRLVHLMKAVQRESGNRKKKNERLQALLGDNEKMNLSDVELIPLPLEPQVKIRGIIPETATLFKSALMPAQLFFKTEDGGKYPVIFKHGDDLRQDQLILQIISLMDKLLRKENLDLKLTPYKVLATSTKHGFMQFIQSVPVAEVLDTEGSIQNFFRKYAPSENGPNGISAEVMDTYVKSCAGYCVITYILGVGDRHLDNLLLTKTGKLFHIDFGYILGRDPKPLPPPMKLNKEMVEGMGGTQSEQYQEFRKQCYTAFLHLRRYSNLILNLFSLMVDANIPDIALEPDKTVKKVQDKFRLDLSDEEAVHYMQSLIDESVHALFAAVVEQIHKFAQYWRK
T4 sequence (Q99570 whole entry S579D/H580D/T583E, chain 2 of 4): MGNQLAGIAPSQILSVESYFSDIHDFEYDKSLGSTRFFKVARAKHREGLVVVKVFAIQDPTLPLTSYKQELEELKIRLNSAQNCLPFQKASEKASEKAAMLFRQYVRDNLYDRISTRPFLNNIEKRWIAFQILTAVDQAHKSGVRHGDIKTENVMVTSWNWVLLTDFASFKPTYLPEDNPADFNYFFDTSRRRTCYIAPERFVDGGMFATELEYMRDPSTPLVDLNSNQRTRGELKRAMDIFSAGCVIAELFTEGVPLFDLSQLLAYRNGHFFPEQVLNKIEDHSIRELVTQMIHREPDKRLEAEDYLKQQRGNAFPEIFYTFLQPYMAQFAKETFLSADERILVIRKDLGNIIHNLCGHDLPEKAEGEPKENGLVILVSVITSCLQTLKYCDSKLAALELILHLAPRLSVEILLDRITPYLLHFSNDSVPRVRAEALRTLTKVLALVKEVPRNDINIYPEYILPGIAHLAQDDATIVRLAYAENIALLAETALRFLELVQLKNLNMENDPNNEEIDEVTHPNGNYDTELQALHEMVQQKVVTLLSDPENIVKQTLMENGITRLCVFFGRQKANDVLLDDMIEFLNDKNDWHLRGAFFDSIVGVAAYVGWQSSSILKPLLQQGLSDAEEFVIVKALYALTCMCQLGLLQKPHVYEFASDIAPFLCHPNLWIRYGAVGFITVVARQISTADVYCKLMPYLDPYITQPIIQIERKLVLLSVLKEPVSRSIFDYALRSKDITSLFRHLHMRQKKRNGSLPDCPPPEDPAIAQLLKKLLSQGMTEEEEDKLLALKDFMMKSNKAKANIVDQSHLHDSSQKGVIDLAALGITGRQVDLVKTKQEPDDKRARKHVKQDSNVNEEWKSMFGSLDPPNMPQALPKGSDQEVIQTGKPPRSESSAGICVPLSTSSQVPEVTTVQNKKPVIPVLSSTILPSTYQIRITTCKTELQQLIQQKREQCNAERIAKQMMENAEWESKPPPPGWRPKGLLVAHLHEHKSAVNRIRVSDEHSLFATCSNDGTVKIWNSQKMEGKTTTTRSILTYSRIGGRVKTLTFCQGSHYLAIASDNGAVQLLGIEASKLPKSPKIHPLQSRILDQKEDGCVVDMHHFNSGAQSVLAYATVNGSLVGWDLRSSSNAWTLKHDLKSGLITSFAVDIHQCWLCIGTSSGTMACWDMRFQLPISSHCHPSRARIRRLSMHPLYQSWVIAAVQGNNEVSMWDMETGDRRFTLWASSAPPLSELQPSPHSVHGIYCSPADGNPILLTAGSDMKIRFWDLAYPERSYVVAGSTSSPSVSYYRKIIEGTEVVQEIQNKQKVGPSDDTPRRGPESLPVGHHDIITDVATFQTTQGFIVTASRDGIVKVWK
T4 sequence (Q14457 whole entry, chain 3 of 4): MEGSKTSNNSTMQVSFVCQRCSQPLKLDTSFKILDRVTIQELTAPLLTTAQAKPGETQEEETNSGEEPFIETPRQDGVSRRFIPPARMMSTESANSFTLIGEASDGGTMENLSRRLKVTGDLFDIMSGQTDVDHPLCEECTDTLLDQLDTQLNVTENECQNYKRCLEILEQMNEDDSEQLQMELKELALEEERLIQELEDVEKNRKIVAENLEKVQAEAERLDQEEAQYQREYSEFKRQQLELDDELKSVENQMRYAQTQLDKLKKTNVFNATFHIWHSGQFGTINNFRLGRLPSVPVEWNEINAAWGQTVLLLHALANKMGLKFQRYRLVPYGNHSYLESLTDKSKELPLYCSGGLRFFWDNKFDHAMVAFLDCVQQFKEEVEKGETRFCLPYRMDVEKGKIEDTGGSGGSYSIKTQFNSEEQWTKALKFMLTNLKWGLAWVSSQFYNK
T4 sequence (Q9P2Y5 whole entry, stated change not applied, chain 4 of 4): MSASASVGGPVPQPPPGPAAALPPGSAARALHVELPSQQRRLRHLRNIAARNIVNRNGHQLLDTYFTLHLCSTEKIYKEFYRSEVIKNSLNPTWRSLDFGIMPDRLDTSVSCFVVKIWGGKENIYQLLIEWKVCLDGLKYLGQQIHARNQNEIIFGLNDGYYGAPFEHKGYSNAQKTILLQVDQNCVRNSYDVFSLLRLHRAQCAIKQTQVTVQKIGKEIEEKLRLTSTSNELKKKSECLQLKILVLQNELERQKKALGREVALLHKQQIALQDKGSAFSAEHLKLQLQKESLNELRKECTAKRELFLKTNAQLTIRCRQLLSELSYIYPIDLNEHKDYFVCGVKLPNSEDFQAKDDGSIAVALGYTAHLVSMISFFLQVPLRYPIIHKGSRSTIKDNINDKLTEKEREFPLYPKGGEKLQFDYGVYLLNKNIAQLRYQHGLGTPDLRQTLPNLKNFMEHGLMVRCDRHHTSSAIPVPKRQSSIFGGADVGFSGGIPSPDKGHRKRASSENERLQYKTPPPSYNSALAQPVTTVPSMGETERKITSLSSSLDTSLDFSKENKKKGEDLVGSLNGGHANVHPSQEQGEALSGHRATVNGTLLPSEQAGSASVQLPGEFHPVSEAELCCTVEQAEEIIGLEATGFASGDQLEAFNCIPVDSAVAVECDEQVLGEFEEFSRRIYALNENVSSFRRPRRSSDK

B1: AF488-labelled human RAB5A Q79L C19S C63S, 1-212 (natural protein, UniProt P20339 1-212, looked up)
chain: MASRGATRPNGPNTGNKISQFKLVLLGESAVGKSSLVLRFVKGQFHEFQESTIGAAFLTQTVSLDDTTVKFEIWDTAGLERYHSLAPMYYRGAQAAIVVYDITNEESFARAKNWVKELQRQASPNIVIALSGNKADLANKRAVDFQEAQSYADDNSLLFMETSAKTSMNVNEIFMAIAKKLPKNEPQNPGANSARGRGVDLTEPTQPTRNQC
modifications: AlexaFluor 488 C5 maleimide label (43% labelling efficiency)
notes: human RAB5A residues 1-212, Q79L C19S C63S; The methods say that RAB5A was loaded with GTP or GDP; also called RAB5A-AF488; RAB5-AF488
[1]
  Kd: 2.6 µM
[2]
  Kd: 7.4 µM
[3]
  fold tighter binding than the WT complex: ~3 fold
[4]
  Kd: 27 µM
[5]
  Kd: 6 µM

B2: human RAB5A-GTP 1-212 (C19S, C63S, Q79L), unlabelled (natural protein, UniProt P20339 1-212, looked up)
chain: B1 chain
[6]
  GUV-based kinase assay: activation of VPS34-CII by membrane-tethered RAB5A (initial rates, AF647-PX signal): 2 fold
[7]
  GUV-based kinase assay: activation of VPS34-CII by membrane-tethered RAB5A (initial rates, AF647-PX signal): ~2 fold

B3: HsRAB5A Q79L C19S,C63S, 1-212, AF488-labelled (natural protein, human, UniProt P20339 1-212, looked up)
chain: B1 chain
modifications: AlexaFluor 488 C5 maleimide label (43% labelling efficiency)
notes: RAB5A, human, residues 1-212, with Q79L, C19S and C63S; Loaded with GTP or GDP before gel filtration; also called RAB5A-AF488; AF488-RAB5A; source: E. coli OverExpress C41(DE3), purified (HisTrap, ULP1 cleavage, gel filtration)
[8]
  Kd: 6.27 µM
[9]
  Kd: 22.1 µM
[10]
  Kd: 6.04 µM
[11]
  Kd: 3.21 µM and 4.24 µM

B4: S. cerevisiae Vps21 Q66L, 1-207, EGFP fusion (natural protein, UniProt P36017 1-207, looked up)
chain: MNTSVTSIKLVLLGEAAVGKSSIVLRFVSNDFAENKEPTIGAAFLTQRVTINEHTVKFEIWDTAGLERFASLAPMYYRNAQAALVVYDVTKPQSFIKARHWVKELHEQASKDIIIALVGNKIDMLQEGGERKVAREEGEKLAEEKGLLFFETSAKTGENVNDVFLGIGEKIPLKTAEEQNSASNERESNNQRVDLNAANDGTSANSA
notes: S. cerevisiae Vps21 residues 1-207, Q66L (GTP-locked); Backbone pOPTH; also called Vps21 Q66L-EGFP; yeast RAB5 orthologue; source: E. coli OverExpress C41(DE3), purified (Ni-NTA, Q column, S75 gel filtration), GTP-loaded; not shown: EGFP, C-terminal, kept
[12]
  Kd: 6 µM
[13]
  binding result: binds
